Measured values from patent US7897573B2, “Selective VPAC2 receptor peptide agonists” (priority 2005, dated 2011).

Assays:
Rat VPAC1 Receptor = biological target: T1, Rat VPAC1 Receptor (Rattus norvegicus, UniProt P30083); experiment: DiscoveRx cAMP potency, CHO-PO cells transiently transfected with rat VPAC1 receptor; type: cell-based; settings: cAMP generation
T1 construct: expressed in transfected cells; host or cells: CHO-PO (transient, Lipofectamine)
T1 sequence (P30083 31-459): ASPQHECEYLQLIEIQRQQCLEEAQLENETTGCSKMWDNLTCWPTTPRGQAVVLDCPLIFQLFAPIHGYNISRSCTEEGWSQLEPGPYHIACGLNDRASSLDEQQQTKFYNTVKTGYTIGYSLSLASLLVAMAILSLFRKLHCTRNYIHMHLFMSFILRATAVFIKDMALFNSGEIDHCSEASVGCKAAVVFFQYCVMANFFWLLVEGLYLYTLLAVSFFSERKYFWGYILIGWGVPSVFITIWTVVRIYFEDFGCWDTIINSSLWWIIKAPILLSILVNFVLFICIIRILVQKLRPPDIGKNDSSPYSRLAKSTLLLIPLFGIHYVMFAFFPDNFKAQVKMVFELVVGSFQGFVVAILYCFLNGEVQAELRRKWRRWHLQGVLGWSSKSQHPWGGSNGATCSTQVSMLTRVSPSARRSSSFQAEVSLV
Method: (§1) DiscoveRx: CHO-PO cells are transiently transfected with rat VPAC1 or VPAC2 receptor DNA using commercially available transfection reagents (Lipofectamine from Invitrogen). The cells are seeded at a density of 10,000/well in a 96-well plate and are allowed to grow for 3 days in […] culture medium At day 3, the assay is performed.
(§2) On the day of the experiment, the medium is removed. Also, the cells are washed twice. The cells are incubated in assay buffer plus IBMX for 15 minutes at room temperature. Afterwards, the stimuli are added and are dissolved in assay buffer. The stimuli are present for 30 minutes. Then, the assay buffer is gently removed. The cell lysis reagent of the DiscoveRx cAMP kit is added. Thereafter, the standard protocol for developing the cAMP signal as described by the manufacturer is used (DiscoveRx Inc., USA). EC50 values for cAMP generation are calculated from the raw signal or are based on absolute cAMP levels as determined by a standard curve performed on each plate.
(§3) Results for each agonist are the mean of two independent runs. Rat VPAC1 and VPAC2 results are only generated using the DiscoveRx assay.

Rat VPAC2 Receptor = biological target: T2, Rat VPAC2 Receptor (Rattus norvegicus, UniProt P35000); experiment: DiscoveRx cAMP potency, CHO-PO cells transiently transfected with rat VPAC2 receptor; type: cell-based; settings: cAMP generation
T2 construct: expressed in transfected cells; host or cells: CHO-PO (transient, Lipofectamine)
T2 sequence (P35000 23-437): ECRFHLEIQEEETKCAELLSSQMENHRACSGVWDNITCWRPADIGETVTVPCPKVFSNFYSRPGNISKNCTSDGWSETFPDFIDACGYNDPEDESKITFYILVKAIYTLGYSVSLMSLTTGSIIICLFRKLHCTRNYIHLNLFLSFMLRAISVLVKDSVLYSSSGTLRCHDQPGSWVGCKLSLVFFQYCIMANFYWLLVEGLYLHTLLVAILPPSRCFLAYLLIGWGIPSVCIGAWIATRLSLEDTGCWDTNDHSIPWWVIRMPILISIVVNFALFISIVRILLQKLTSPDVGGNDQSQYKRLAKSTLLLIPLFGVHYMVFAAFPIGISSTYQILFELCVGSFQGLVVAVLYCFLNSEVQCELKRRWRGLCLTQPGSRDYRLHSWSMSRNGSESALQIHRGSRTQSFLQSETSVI
Method: as §1, §2, §3

Human VPAC2 Receptor = biological target: T3, Human VPAC2 Receptor (Homo sapiens, UniProt P41587); experiment: Alpha screen cAMP potency at human VPAC2 receptor; type: cell-based; settings: cAMP generation; read-out: Human VPAC2 Receptor: Alphascreen (EC50; nM)
T3 sequence (P41587 24-438): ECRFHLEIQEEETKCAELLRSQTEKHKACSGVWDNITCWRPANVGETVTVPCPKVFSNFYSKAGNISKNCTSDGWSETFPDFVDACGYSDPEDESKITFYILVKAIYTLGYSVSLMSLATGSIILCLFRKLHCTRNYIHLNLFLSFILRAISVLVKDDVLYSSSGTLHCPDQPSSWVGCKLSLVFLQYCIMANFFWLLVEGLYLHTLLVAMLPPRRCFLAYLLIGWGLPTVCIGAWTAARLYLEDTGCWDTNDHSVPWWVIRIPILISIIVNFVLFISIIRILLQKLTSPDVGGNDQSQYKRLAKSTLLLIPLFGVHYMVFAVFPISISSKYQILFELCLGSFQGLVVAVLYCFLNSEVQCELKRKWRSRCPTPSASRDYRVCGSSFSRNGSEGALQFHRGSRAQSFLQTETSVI
Method: Alpha screen: Cells are washed in the culture flask once with PBS. Then, the cells are rinsed with enzyme free dissociation buffer. The dissociated cells are removed. The cells are then spun down and washed in stimulation buffer. For each data point, 50,000 cells suspended in stimulation buffer are used. To this buffer, Alpha screen acceptor beads are added along with the stimuli. This mixture is incubated for 60 minutes. Lysis buffer and Alpha screen donor beads are added and are incubated for 60 to 120 minutes. The Alpha screen signal (indicative of intracellular cAMP levels) is read in a suitable instrument (e.g. AlphaQuest from Perkin-Elmer). Steps including Alpha screen donor and acceptor beads are performed in reduced light. The EC50 for cAMP generation is calculated from the raw signal or is based on absolute cAMP levels as determined by a standard curve performed on each plate.
The tested peptide concentrations are: 10000, 1000, 100, 10, 3, 1, 0.1, 0.01, 0.003, 0.001, 0.0001 and 0.00001 nM.

Normal Wistar rats = experiment: Intravenous glucose tolerance test (IVGTT); type: in vivo, rat; settings: for % increase AUC: Dose = 0.1 mg/kg / % increase AUC: Dose = 0.3 mg/kg: AUC insulin, 0-10 min after glucose, 24 h between glucose & compound, Wistar rats; for insulin response to the i.v. glucose challenge: FIG. 1, animals treated 24 h prior to the glucose injection, versus vehicle-treated animals
Method: Intravenous glucose tolerance test (IVGTT): Normal Wistar rats are fasted overnight and are anesthetized prior to the experiment. A blood sampling catheter is inserted into the rats. The agonist is given subcutaneously, normally 24 h prior to the glucose challenge. Blood samples are taken from the carotid artery. A blood sample is drawn immediately prior to the injection of glucose along with the agonist. After the initial blood sample, glucose mixed is injected intravenously (i.v.). A glucose challenge of 0.5 g/kg body weight is given, injecting a total of 1.5 mL vehicle with glucose and agonist per kg body weight. The peptide concentrations are varied to produce the desired dose in μg/kg. Blood samples are drawn at 2, 4, 6 and 10 minutes after giving glucose. The control group of animals receives the same vehicle along with glucose, but with no agonist added. In some instances, 20 and 30 minute post-glucose blood samples were drawn. Aprotinin is added to the blood sample (250-500 kIU/ml blood). The plasma is then analyzed for glucose and insulin using standard methodologies.
The assay uses a formulated and calibrated peptide stock in PBS. Normally, this stock is a prediluted 100 μM stock. However, a more concentrated stock with approximately 1 mg agonist per mL is used. The specific concentration is always known. Variability in the maximal response is mostly due to variability in the vehicle dose.

Human PAC1 Receptor = biological target: T4, Human PAC1 Receptor (Homo sapiens, UniProt P41586); experiment: Filter binding assay, 125I-labeled PACAP-27, membranes of cells transiently transfected with human PAC1; settings: 125I-labeled PACAP-27 tracer
T4 construct: expressed in transfected cells
T4 sequence (P41586 21-468): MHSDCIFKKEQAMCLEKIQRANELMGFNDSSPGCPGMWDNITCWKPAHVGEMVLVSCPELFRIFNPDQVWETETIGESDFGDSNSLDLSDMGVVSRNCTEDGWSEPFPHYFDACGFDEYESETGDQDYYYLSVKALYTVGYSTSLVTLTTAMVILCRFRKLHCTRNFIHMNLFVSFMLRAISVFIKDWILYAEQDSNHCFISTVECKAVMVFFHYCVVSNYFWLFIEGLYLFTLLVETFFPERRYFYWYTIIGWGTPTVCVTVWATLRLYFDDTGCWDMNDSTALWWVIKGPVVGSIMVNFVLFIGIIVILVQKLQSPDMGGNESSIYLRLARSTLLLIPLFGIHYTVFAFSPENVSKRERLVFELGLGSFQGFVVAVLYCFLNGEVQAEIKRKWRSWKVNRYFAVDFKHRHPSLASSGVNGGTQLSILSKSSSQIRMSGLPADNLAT
Method: For this assay, the solutions and equipment include:
Presoak solution: 0.5% Polyethyleneamine in Aqua dest
Buffer for flushing filter plates: 25 mM HEPES pH 7.4
Blocking buffer: 25 mM HEPES pH 7.4; 0.2% protease free BSA
Assay buffer: 25 mM HEPES pH 7.4; 0.5% protease free BSA
Dilution and assay plate: PS-Microplate, U form
Filtration Plate Multiscreen FB Opaque Plate; […] Type B Glasfiber filter
In order to prepare the filter plates, the presoak solution is aspirated by vacuum filtration. The plates are flushed twice with 200 μL flush buffer. 200 μL blocking buffer is added to the filter plate. The filter plate is then incubated with 200 μL presoak solution for 1 hour at room temperature.
The assay plate is filled with 25 μL assay buffer, 25 μL membranes (2.5 μg) suspended in assay buffer, 25 μL agonist in assay buffer, and 25 μL tracer (about 40000 cpm) in assay buffer. The filled plate is incubated for 1 hour with shaking.
The transfer from assay plate to filter plate is conducted. The blocking buffer is aspirated by vacuum filtration and washed two times with flush buffer. 90 μL is transferred from the assay plate to the filter plate. The 90 μL transferred from assay plate is aspirated and washed three times with 200 μL flush buffer. The plastic support is removed. It is dried for 1 hour at 60° C. 30 μL Microscint is added. The count is performed.

Human VPAC1 Receptor = biological target: T5, Human VPAC1 Receptor (Homo sapiens, UniProt P32241); experiment: Filter binding assay, 125I-labeled VIP, membranes of cells transiently transfected with human VPAC1; settings: 125I-labeled VIP tracer
T5 construct: expressed in transfected cells
T5 sequence (P32241 31-457): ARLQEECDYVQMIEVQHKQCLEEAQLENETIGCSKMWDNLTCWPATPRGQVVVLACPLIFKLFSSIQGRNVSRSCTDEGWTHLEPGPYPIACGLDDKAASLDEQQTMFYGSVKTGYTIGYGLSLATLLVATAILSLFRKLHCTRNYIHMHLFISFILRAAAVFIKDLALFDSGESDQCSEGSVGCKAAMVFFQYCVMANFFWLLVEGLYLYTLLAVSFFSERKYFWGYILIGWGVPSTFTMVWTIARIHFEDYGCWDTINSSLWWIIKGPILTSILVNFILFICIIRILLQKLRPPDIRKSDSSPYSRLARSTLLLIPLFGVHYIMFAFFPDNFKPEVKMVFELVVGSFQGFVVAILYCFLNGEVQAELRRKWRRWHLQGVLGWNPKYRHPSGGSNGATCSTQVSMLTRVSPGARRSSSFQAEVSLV

[1] = Pharmacokinetic profiles of PEGylated peptides in Fisher 344 rats; type: in vivo, rat; settings: 100 μg agonist/kg, plasma RIA, mean N = 3
Summary of the method: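 Healthy rats (n=3/group) received 100 μg agonist/kg in PBS, dose based on peptide content; route not given. Plasma sampled 3–168 h post-dose, peptide quantified by N-terminal-directed RIA, PK parameters derived by model-independent analysis.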

[2] = Rat serum stability study (DiscoveRx cAMP read-out on CHO-VPAC2 cells); settings: EC50, 4° C./EC50, 37° C., values >100% may represent release of intact peptide from the PEG conjugate; for 24 h stab (%): 24 h in rat serum at 37° C.; for 72 h stab (%): 72 h in rat serum at 37° C.

Row | Substance | EC50 (Rat VPAC1 Receptor) [nM] | EC50 (Rat VPAC2 Receptor) [nM] | EC50 (Human VPAC2 Receptor) [nM] | % increase AUC: Dose = 0.1 mg/kg (Normal Wistar rats) [%] | % increase AUC: Dose = 0.3 mg/kg (Normal Wistar rats) [%] | insulin response to the i.v. glucose challenge (Normal Wistar rats) | IC50 (Human PAC1 Receptor) [nM] | IC50 (Human VPAC1 Receptor) [nM] | AUC0-last [1] [ng·h/mL] | Cl/F [1] [mL/min/kg] | Cmax [1] [ng/mL] | Tmax [1] [h] | T½ [1] [h] | 24 h stab (%) [2] [%] | 72 h stab (%) [2] [%]
1 | C6-HSDAVFTEQY(OMe)TOrnLRAibQLAAbuAibOrnY(OMe)LQSIOrnC(PEG40K)OrnGGPSSGAPPPS-NH2 (HSDAVFTEQYTXLRXQLAXXXYLQSIXCXGGPSSGAPPPS; C6 acyl, non-natural residues, PEG40K, C-terminal amide; Synthetic sequence PEGylated VPAC2 receptor agonist) [Agonist P584] | 188 | 67.2 | 51.2 | – | – | – | – | – | – | – | – | – | – | – | –
2 | C6-HSDAVFTEQY(OMe)TOrnLRAibQVAAAibOrnYLQSIOrnC(PEG20K)OrnGGPSSGAPPPC(PEG20K)-NH2 (HSDAVFTEQYTXLRXQVAAXXYLQSIXCXGGPSSGAPPPC; C6 acyl, two PEG20K, C-terminal amide; Synthetic sequence PEGylated VPAC2 receptor agonist) [Agonist P505] | – | – | – | 12 | 74 | enhancement of the insulin response | > 25000 | > 25000 | 7006 | 0.217 | 160 | 12 | 22 | 133 | 161
3 | C6-HSDAVFTEQY(OMe)TOrnLRAibQLAAbuAibOrnYAibQAibIOrnOrnGGPSSGAPPPC(PEG20K)C(PEG20K)-NH2 (HSDAVFTEQYTXLRXQLAXXXYXQXIXXGGPSSGAPPPCC; C6 acyl, two PEG20K, C-terminal amide; Synthetic sequence PEGylated VPAC2 receptor agonist) [Agonist P525] | – | – | – | 72 | 208 | enhancement of the insulin response | > 25000 | > 25000 | 4740 | 0.333 | 133 | 16 | 22 | 298 | 353
4 | C6-HSDAVFTEQY(OMe)TOrnLRAibQVAAAibK(CO(CH2)2SPEG40K)YLQSIOrnOrnGGPSSGAPPPS-NH2 (HSDAVFTEQYTXLRXQVAAXXYLQSIXXGGPSSGAPPPS; C6 acyl; PEG40K; non-natural residues; amide; Synthetic sequence PEGylated VPAC2 receptor peptide agonist) [Agonist P472] | – | 285 | 123 | – | – | – | – | – | – | – | – | – | – | 66 | –
